The source of these data is patent US20180112001A1.

The target in the assay is human MUC16 (mucin 16), endogenously expressed on cells (human). The experiment in a line: MSD electrochemiluminescence cell binding; RLU ratio OVCAR-3/SK-OV-3; Ab […]; NS = Non-Specific, ratio <2.5-fold.

With mIgG2a Isotype Control Antibody, the Ratio: anti-MUC16 Binding OVCAR-3/SK-OV-3 was less than 2.5.
The same measure for hIgG1 Isotype Control Antibody: less than 2.5; for mIgG1 Isotype Control Antibody: less than 2.5.
